In the supplement of paper PMC6757056:
± gives the standard deviation of the averaged measurements.

B1: library; a variant is named by its letters at N, in order (parent)
chain: GCUGUCACCGAGAAACUGUGAAGUAUAUCUUAAACCUGGGCACUUAAAAGAUAUAUGGAGUUAGUAGUGCAACCUGCUCGGUCUGAUGAGUCCNNNNNNGGACGAAACAGC

Key:
cyclic di-GMP [1] = variants of: B1; assay: FACS-Seq fitted mean relative fluorescence mCherry/BFP without ligand (log10 relative fluorescence); HEK293T; ligand: cyclic di-GMP (c-di-GMP-II aptamer); higher = higher reporter protein expression; settings: ligand present: no
Method in brief: (§1)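 Fluorescence is reported as a normalized fitted mean of sorted-bin read counts. Lentivirally transduced HEK293T libraries (mCherry ribozyme-switch reporter, EF1α-BFP marker) were enriched, treated with or without ligand for 48 h, and sorted into 6 mCherry/BFP bins for MiSeq sequencing of PCR-amplified genomic DNA. The normal fit was on log10(mCherry/BFP), scaled to five spiked-in control ribozymes.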

cyclic di-GMP [2] = variants of: B1; assay: normalized RNA/DNA level without ligand (relative to sTRSVctl = 100) (log10 (% of sTRSVctl)); HEK293T; ligand: cyclic di-GMP (c-di-GMP-II aptamer); higher = less ribozyme self-cleavage, higher mRNA level; settings: reporter: mCherry (pCS4076), ligand present: no
Method: (§2)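 Hammerhead (sTRSV) ribozyme switch libraries with a ligand aptamer grafted on stem I and a randomized N4-6 loop II, cloned into the 3' UTR of mCherry and transiently transfected into HEK293T cells; RNA-Seq 72 h post transfection with ligand added 1 h before transfection; RNA read count / plasmid DNA read count normalized to the non-cleaving sTRSVctl (x100), log10; sequences with >100 DNA reads. FACS-Seq: lentiviral library sorted into 6 bins after 48 h ligand, log-normal fit mean of mCherry/BFP scaled to controls. Printed sequences are partial switch sequences.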

cyclic di-GMP [3] = variants of: B1; assay: FACS-Seq fitted mean relative fluorescence mCherry/BFP with ligand (log10 relative fluorescence); HEK293T; ligand: cyclic di-GMP (c-di-GMP-II aptamer); ligand concentration (+) FACS-Seq: 1 mM; higher = higher reporter protein expression; settings: ligand present: yes
Method in brief: as §1

cyclic di-GMP [4] = variants of: B1; assay: normalized RNA/DNA level with ligand (relative to sTRSVctl = 100) (log10 (% of sTRSVctl)); HEK293T; ligand: cyclic di-GMP (c-di-GMP-II aptamer); ligand concentration (+) RNA-Seq: 1 mM; higher = less ribozyme self-cleavage, higher mRNA level; settings: reporter: mCherry (pCS4076), ligand present: yes
Method: as §2

GCUGUCACCGAGAAACUGUGAAGUAUAUCUUAAACCUGGGCACUUAAAAGAUAUAUGGAGUUAGUAGUGCAACCUGCUCGGUCUGAUGAGUCCUAUGAAGGACGAAACAGC [UAUGAA]
FACS-Seq fitted mean (log10) (cyclic di-GMP [1]): -0.265 ± 0.024
normalized RNA/DNA level without ligand (log10) (cyclic di-GMP [2]): 1.64 ± 0.018
FACS-Seq fitted mean (log10) (cyclic di-GMP [3]): -0.0026 ± 0.016
normalized RNA/DNA level with ligand (log10) (cyclic di-GMP [4]): 1.78 ± 0.08

GCUGUCACCGAGAAACUGUGAAGUAUAUCUUAAACCUGGGCACUUAAAAGAUAUAUGGAGUUAGUAGUGCAACCUGCUCGGUCUGAUGAGUCCUAUGACGGACGAAACAGC [UAUGAC]
FACS-Seq fitted mean (log10) (cyclic di-GMP [1]): -0.234 ± 0.026
normalized RNA/DNA level without ligand (log10) (cyclic di-GMP [2]): 1.71 ± 0.057
FACS-Seq fitted mean (log10) (cyclic di-GMP [3]): 0.133 ± 0.1
normalized RNA/DNA level with ligand (log10) (cyclic di-GMP [4]): 1.87 ± 0.1

GCUGUCACCGAGAAACUGUGAAGUAUAUCUUAAACCUGGGCACUUAAAAGAUAUAUGGAGUUAGUAGUGCAACCUGCUCGGUCUGAUGAGUCCCAUCCAGGACGAAACAGC [CAUCCA]
FACS-Seq fitted mean (log10) (cyclic di-GMP [1]): -0.794 ± 0.028
normalized RNA/DNA level without ligand (log10) (cyclic di-GMP [2]): 1.44 ± 0.016
FACS-Seq fitted mean (log10) (cyclic di-GMP [3]): -0.5192 ± 0.002
normalized RNA/DNA level with ligand (log10) (cyclic di-GMP [4]): 1.696 ± 0.011

GCUGUCACCGAGAAACUGUGAAGUAUAUCUUAAACCUGGGCACUUAAAAGAUAUAUGGAGUUAGUAGUGCAACCUGCUCGGUCUGAUGAGUCCCAUCGAGGACGAAACAGC [CAUCGA]
FACS-Seq fitted mean (log10) (cyclic di-GMP [1]): -0.063 ± 0.043
normalized RNA/DNA level without ligand (log10) (cyclic di-GMP [2]): 1.64 ± 0.057
FACS-Seq fitted mean (log10) (cyclic di-GMP [3]): 0.144 ± 0.0063
normalized RNA/DNA level with ligand (log10) (cyclic di-GMP [4]): 1.78 ± 0.07

GCUGUCACCGAGAAACUGUGAAGUAUAUCUUAAACCUGGGCACUUAAAAGAUAUAUGGAGUUAGUAGUGCAACCUGCUCGGUCUGAUGAGUCCUAUCACGGACGAAACAGC [UAUCAC]
FACS-Seq fitted mean (log10) (cyclic di-GMP [1]): 0.171 ± 0.13
normalized RNA/DNA level without ligand (log10) (cyclic di-GMP [2]): 1.75 ± 0.0055
FACS-Seq fitted mean (log10) (cyclic di-GMP [3]): 0.375 ± 0.051
normalized RNA/DNA level with ligand (log10) (cyclic di-GMP [4]): 1.87 ± 0.11

GCUGUCACCGAGAAACUGUGAAGUAUAUCUUAAACCUGGGCACUUAAAAGAUAUAUGGAGUUAGUAGUGCAACCUGCUCGGUCUGAUGAGUCCGAUCGAGGACGAAACAGC [GAUCGA]
FACS-Seq fitted mean (log10) (cyclic di-GMP [1]): -0.635 ± 0.0097
normalized RNA/DNA level without ligand (log10) (cyclic di-GMP [2]): 1.64 ± 0.033
FACS-Seq fitted mean (log10) (cyclic di-GMP [3]): -0.425 ± 0.16
normalized RNA/DNA level with ligand (log10) (cyclic di-GMP [4]): 1.78 ± 0.094

GCUGUCACCGAGAAACUGUGAAGUAUAUCUUAAACCUGGGCACUUAAAAGAUAUAUGGAGUUAGUAGUGCAACCUGCUCGGUCUGAUGAGUCCCAUGACGGACGAAACAGC [CAUGAC]
FACS-Seq fitted mean (log10) (cyclic di-GMP [1]): -0.0513 ± 0.12
normalized RNA/DNA level without ligand (log10) (cyclic di-GMP [2]): 1.63 ± 0.033
FACS-Seq fitted mean (log10) (cyclic di-GMP [3]): 0.217 ± 0.061
normalized RNA/DNA level with ligand (log10) (cyclic di-GMP [4]): 1.79 ± 0.13

GCUGUCACCGAGAAACUGUGAAGUAUAUCUUAAACCUGGGCACUUAAAAGAUAUAUGGAGUUAGUAGUGCAACCUGCUCGGUCUGAUGAGUCCCAUGAAGGACGAAACAGC [CAUGAA]
FACS-Seq fitted mean (log10) (cyclic di-GMP [1]): -0.704 ± 0.022
normalized RNA/DNA level without ligand (log10) (cyclic di-GMP [2]): 1.28 ± 0.092
FACS-Seq fitted mean (log10) (cyclic di-GMP [3]): -0.4855 ± 0.00097
normalized RNA/DNA level with ligand (log10) (cyclic di-GMP [4]): 1.43 ± 0.12

GCUGUCACCGAGAAACUGUGAAGUAUAUCUUAAACCUGGGCACUUAAAAGAUAUAUGGAGUUAGUAGUGCAACCUGCUCGGUCUGAUGAGUCCAAUGAGGGACGAAACAGC [AAUGAG]
FACS-Seq fitted mean (log10) (cyclic di-GMP [1]): -0.328 ± 0.065
normalized RNA/DNA level without ligand (log10) (cyclic di-GMP [2]): 1.54 ± 0.048
FACS-Seq fitted mean (log10) (cyclic di-GMP [3]): 0.0671 ± 0.032
normalized RNA/DNA level with ligand (log10) (cyclic di-GMP [4]): 1.71 ± 0.093

GCUGUCACCGAGAAACUGUGAAGUAUAUCUUAAACCUGGGCACUUAAAAGAUAUAUGGAGUUAGUAGUGCAACCUGCUCGGUCUGAUGAGUCCAAUGAAGGACGAAACAGC [AAUGAA]
FACS-Seq fitted mean (log10) (cyclic di-GMP [1]): -0.0795 ± 0.021
normalized RNA/DNA level without ligand (log10) (cyclic di-GMP [2]): 1.46 ± 0.097
FACS-Seq fitted mean (log10) (cyclic di-GMP [3]): 0.113 ± 0.065
normalized RNA/DNA level with ligand (log10) (cyclic di-GMP [4]): 1.63 ± 0.097

GCUGUCACCGAGAAACUGUGAAGUAUAUCUUAAACCUGGGCACUUAAAAGAUAUAUGGAGUUAGUAGUGCAACCUGCUCGGUCUGAUGAGUCCCAUCUCGGACGAAACAGC [CAUCUC]
FACS-Seq fitted mean (log10) (cyclic di-GMP [1]): -0.977 ± 0.064
normalized RNA/DNA level without ligand (log10) (cyclic di-GMP [2]): 1.74 ± 0.051
FACS-Seq fitted mean (log10) (cyclic di-GMP [3]): -0.802 ± 0.028
normalized RNA/DNA level with ligand (log10) (cyclic di-GMP [4]): 1.86 ± 0.11

GCUGUCACCGAGAAACUGUGAAGUAUAUCUUAAACCUGGGCACUUAAAAGAUAUAUGGAGUUAGUAGUGCAACCUGCUCGGUCUGAUGAGUCCGAUCAUGGACGAAACAGC [GAUCAU]
FACS-Seq fitted mean (log10) (cyclic di-GMP [1]): -0.326 ± 0.12
normalized RNA/DNA level without ligand (log10) (cyclic di-GMP [2]): 1.63 ± 0.051
FACS-Seq fitted mean (log10) (cyclic di-GMP [3]): -0.0439 ± 0.023
normalized RNA/DNA level with ligand (log10) (cyclic di-GMP [4]): 1.79 ± 0.14

GCUGUCACCGAGAAACUGUGAAGUAUAUCUUAAACCUGGGCACUUAAAAGAUAUAUGGAGUUAGUAGUGCAACCUGCUCGGUCUGAUGAGUCCGAUCAAGGACGAAACAGC [GAUCAA]
FACS-Seq fitted mean (log10) (cyclic di-GMP [1]): -0.23 ± 0.07
normalized RNA/DNA level without ligand (log10) (cyclic di-GMP [2]): 1.57 ± 0.054
FACS-Seq fitted mean (log10) (cyclic di-GMP [3]): 0.0757 ± 0.065
normalized RNA/DNA level with ligand (log10) (cyclic di-GMP [4]): 1.75 ± 0.052
